Measurements taken from patent US20240101716A1 (LA NOVA MEDICINES DEVELOPMENT, published 2024).

Assays:
[1] = molecular target: T1, recombinant human PD-L1 His protein (human, UniProt Q9NZQ7 19-239); assay: SPR Biacore T200, PD-L1 His on chip, sdAb analyte
T1 construct: not shown: His tag
Method: Affinity constant (Kd) of each sdAb and HCAb was determined by surface plasmon resonance (SPR) on a BIAcore T200 instrument. Briefly, PD-L1 His was amine-coupled to a CMS sensor chip at a density of no higher than 100 RU. […] Flow rate was 30 μl/min in all experiments. Association and dissociation phases were 5 and 10 min, respectively. The chip was regenerated using Glycine/HCl pH 1.5. Binding curves at different concentrations of sdAbs and HCAbs were used to calculate the kinetic parameters kₒₙ, koff and KD.

[2] = molecular target: human PD-L1 on CHO-K1 cells (human, UniProt Q9NZQ7 19-290); assay: cell-based or functional assay
human PD-L1 on CHO-K1 cells, sequence (Q9NZQ7 19-290): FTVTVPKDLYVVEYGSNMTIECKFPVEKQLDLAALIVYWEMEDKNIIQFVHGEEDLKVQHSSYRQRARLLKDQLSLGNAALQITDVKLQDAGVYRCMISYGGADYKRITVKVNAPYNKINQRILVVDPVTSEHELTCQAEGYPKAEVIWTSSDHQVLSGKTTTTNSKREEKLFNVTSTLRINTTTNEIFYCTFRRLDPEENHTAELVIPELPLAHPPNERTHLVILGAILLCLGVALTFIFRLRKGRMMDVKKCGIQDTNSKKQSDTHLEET

[3] = molecular target: PD-L1 (blocking assay of Example 11) (UniProt Q9NZQ7 19-239, limits assumed); assay: cell-based or functional assay
PD-L1 (blocking assay of Example 11), sequence (Q9NZQ7 19-239 limits assumed): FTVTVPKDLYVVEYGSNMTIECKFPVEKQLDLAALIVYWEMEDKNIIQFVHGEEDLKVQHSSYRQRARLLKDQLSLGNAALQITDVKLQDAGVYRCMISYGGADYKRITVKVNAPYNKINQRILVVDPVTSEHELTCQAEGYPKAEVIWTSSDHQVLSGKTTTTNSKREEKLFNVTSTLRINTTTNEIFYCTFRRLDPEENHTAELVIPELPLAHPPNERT

PD-L1 expressed on cells = molecular target: T2, PD-L1 expressed on cells (UniProt Q9NZQ7 19-290, limits assumed); assay: FACS binding test on PD-L1 cell line, Geom.Mean; unit from the axis log(nm)
T2 construct: whole, on cells
T2 sequence (Q9NZQ7 19-290 limits assumed): as the sequence (Q9NZQ7 19-290) above

[4] = molecular target: T3, recombinant human SIRPα variant 2 protein (human, UniProt P78324 31-370, limits assumed); assay: SPR Biacore 8K, antibody captured, antigen analyte
T3 construct: polymorphic variant 2; also called SIRPα v2; hSIRPαV2
T3 sequence (P78324 other isoform, or with tags, fused parts or gaps mutant limits assumed): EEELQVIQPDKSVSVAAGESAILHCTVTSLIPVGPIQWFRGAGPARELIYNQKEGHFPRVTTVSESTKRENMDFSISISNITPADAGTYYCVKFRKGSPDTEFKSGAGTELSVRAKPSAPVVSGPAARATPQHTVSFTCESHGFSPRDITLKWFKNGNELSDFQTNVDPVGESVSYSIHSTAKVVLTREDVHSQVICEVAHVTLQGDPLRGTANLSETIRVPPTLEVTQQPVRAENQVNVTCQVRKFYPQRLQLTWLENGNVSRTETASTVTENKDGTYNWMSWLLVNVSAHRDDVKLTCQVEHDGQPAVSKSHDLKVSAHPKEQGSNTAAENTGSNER
Method: The binding kinetics assay of antibody to antigen was performed using Biacore 8K system through human antibody capture approach. The […] Fc lgG were immobilized on CM5 sensor chip according to the manufactory's instruction. The test antibody was injected and captured by the immobilized anti-human Fc lgG. […] The assay system was regenerated by injection of 10 mM Glycine-HCl pH 1.5 for 30 seconds. The running buffer was HBS-EP+ (10 mM HEPES, pH 7.4, 150 mM NaCl, 3 mM EDTA and 0.05% P20). The assay temperature was 25° C., and the association and dissociation time were 180 and 600 seconds, respectively.

T1 sequence (Q9NZQ7 19-239 limits assumed): as the sequence (Q9NZQ7 19-239 limits assumed) above

B1: AS11947 sdAb (VHH)
VHH: DVQLVESGGGLVQAGDSLRLTCSASGRTFISYAVGWFRQAPGTEREFVAGIRWNGISTDYTDSVKGRFTISRDNAKNTVYLQMNSLKPEDTAIYYCAAHRTIATIPNKYEYDHWGQGTQVTVSS
notes: His6-tagged llama sdAb
Kd [1]: 0.617 nM | koff [1]: 0.00118 s⁻¹ | kon [1]: 1.92e+06 M⁻¹ s⁻¹ | EC50 of PD-L1-based blockade assay (luciferase reporter) [2]: 77.2 nM

B2: AS06750 sdAb (VHH)
VHH: AVQLVESGGGLVQAGDSLRLSCTASGRTFLTYAVGWFRQAPGTEREFVAGIRWSGGYTDYADSVKGRFTISRDNAKNTVYLQMNSLKPEDTAVYYCAAHRTIATIPEKYEYEYWGQGTQVTVSS
notes: His6-tagged llama sdAb
Kd [1]: 0.109 nM | koff [1]: 0.000223 s⁻¹ | kon [1]: 2.05e+06 M⁻¹ s⁻¹ | EC50 of PD-L1-based blockade assay (luciferase reporter) [2]: 33.6 nM

B3: AS06618 sdAb (VHH)
VHH: EVQLVESGGRLVRAGDSLRLSCAASGRTFLSYAVGWFRQAPGTEREFVAGIRWSGGYTDYAEAVKGRFTISRDNAKNTVYLQMNSLKPEDTAVYYCAAHRTIATIPEKYEYEYWGQGTQVTVSS
notes: His6-tagged llama sdAb
Kd [1]: 0.17 nM | koff [1]: 0.000245 s⁻¹ | kon [1]: 1.44e+06 M⁻¹ s⁻¹ | EC50 of PD-L1-based blockade assay (luciferase reporter) [2]: 44.5 nM

B4: AS06617 sdAb (VHH)
VHH: DVQLVESGGGLVQAGDSLRLSCAASGRTFISYAVGWFRQAPGSEREFVAGIRWNGIHTDYADSVKGRFTISRDNAKNTVTLEMTSLKPEDTAVYYCAAHRTIATIPEKYEYEYWGQGTQVTVSS
notes: His6-tagged llama sdAb
Kd [1]: 0.249 nM | koff [1]: 0.000464 s⁻¹ | kon [1]: 1.86e+06 M⁻¹ s⁻¹ | EC50 of PD-L1-based blockade assay (luciferase reporter) [2]: 63.8 nM

B5: AS12003 sdAb (VHH)
VHH: EVQLVESGGGLVQAGDSLRLSCAASGRTFLSYAVGWFRQAPGTEREFVAGIRWSGGSTDYADSVKGRFTISRDNAKNTVYLQMNSLKPEDTAVYYCAAHRTIATVPNKYEYDTWGQGTQVTVSS
notes: His6-tagged llama sdAb
Kd [1]: 0.56 nM | koff [1]: 0.00155 s⁻¹ | kon [1]: 2.76e+06 M⁻¹ s⁻¹ | EC50 of PD-L1-based blockade assay (luciferase reporter) [2]: 96.2 nM

B6: AS06775 sdAb (VHH)
VHH: QVQLVESGGGLVQAGDSLRLSCAASGRTFLTLAVGWFRQAPGTEREFVAGIRWSGSGTDYADSVKGRFTISRDNAKNTVYLQMNSLKPEDTAVYYCAAHTTIATIPEKYEYEYWGRGTQVTVSS
notes: His6-tagged llama sdAb
Kd [1]: 0.156 nM | koff [1]: 0.000247 s⁻¹ | kon [1]: 1.58e+06 M⁻¹ s⁻¹ | EC50 of PD-L1-based blockade assay (luciferase reporter) [2]: 75.5 nM

B7: AS06682 sdAb (VHH)
VHH: AVQLVESGGGLVQAGDSLRLSCTASGRTFLSYAVGWFRQAPGTEREFVAGIRWSGEHTDYAASVKGRFTISRDNAKNTVYLQMNSLKPEDTAVYYCAAHTTIATIPKKYEYEYWGQGTQVTVSS
notes: His6-tagged llama sdAb
Kd [1]: 0.203 nM | koff [1]: 0.000342 s⁻¹ | kon [1]: 1.68e+06 M⁻¹ s⁻¹ | EC50 of PD-L1-based blockade assay (luciferase reporter) [2]: 42 nM

B8: AS11948 sdAb (VHH)
VHH: EVQLVESGGGLVQAGDSLRLSCVASGRTFVTYGMGWFRQAPGKEREFVAAINWSGSMTSYGDSVKGRFAISRDNAKNTVYLQMNSLKPEDTAVYYCAAALGAVVYTTREPYTYWGRGTQVTVSS
notes: His6-tagged llama sdAb
Kd [1]: 0.167 nM | koff [1]: 0.000394 s⁻¹ | kon [1]: 2.37e+06 M⁻¹ s⁻¹ | EC50 of PD-L1-based blockade assay (luciferase reporter) [2]: 25.2 nM

B9: PD-L1/SIRPa-LN1 (bispecific antibody, human IgG4 S228P, kappa)
heavy: not shown
light: EVQLVESGGGLVQPGGSLRLSCAASGRTFVTYGMGWFRQAPGKGREFVSAISWSGSMTSYGDSVKGRFTISRDNAKNTLYLQMNSLRPEDTAVYYCAAALGAVVYTTREPYTYWGQGTLVTVSSGGGGSGGGGSGGGGSEIVLTQSPGTLSLSPGERATLSCRASSSVSSSYLYWYQQKPGQAPRLLIYSTSNLASGIPDRFSGSGSGTDYTLTISRLEPEDAAVYFCHQWYSYPRTFGGGTKVEIKRTVAAPSVFIFPPSDEQLKSGTASVVCLLNNFYPREAKVQWKVDNALQSGNSQESVTEQDSKDSTYSLSSTLTLSKADYEKHKVYACEVTHQGLSSPVTKSFNRGEC
EC50, luminescence (RLU) in the PD-1/PD-L1 Blockade Assay [3]: 1.13 nM

B10: AS06778 sdAb (VHH)
VHH: QVQLVESGGGLVQAGGSLKLSCAASGRTFITYAMGWFRQAPGKERELVAAISWSGSSTYSADSVKGRFTISRDNAKNTVYLQMNSLKPEDTAVYYCAAEVSARTGEHLPKLMGDYWGQGTQVTVSS
notes: His6-tagged llama sdAb
Kd [1]: 0.0233 nM | koff [1]: 4.42e-05 s⁻¹ | kon [1]: 1.9e+06 M⁻¹ s⁻¹ | EC50 of PD-L1-based blockade assay (luciferase reporter) [2]: 20.1 nM

B11: PD-L1/SIRPa-HN1 (bispecific antibody, human IgG4 S228P, kappa)
heavy: not shown
light: EIVLTQSPGTLSLSPGERATLSCRASSSVSSSYLYWYQQKPGQAPRLLIYSTSNLASGIPDRFSGSGSGTDYTLTISRLEPEDAAVYFCHQWYSYPRTFGGGTKVEIKRTVAAPSVFIFPPSDEQLKSGTASVVCLLNNFYPREAKVQWKVDNALQSGNSQESVTEQDSKDSTYSLSSTLTLSKADYEKHKVYACEVTHQGLSSPVTKSFNRGEC
notes: Format II: sdAb at the N-terminus of the heavy chain (248G3F6); also called PD-L1/SIRPα-HN1
EC50 (PD-L1 expressed on cells): 0.311 nM

B12: PD-L1/SIRPa-HC2 (bispecific antibody, human IgG4 S228P, kappa)
heavy: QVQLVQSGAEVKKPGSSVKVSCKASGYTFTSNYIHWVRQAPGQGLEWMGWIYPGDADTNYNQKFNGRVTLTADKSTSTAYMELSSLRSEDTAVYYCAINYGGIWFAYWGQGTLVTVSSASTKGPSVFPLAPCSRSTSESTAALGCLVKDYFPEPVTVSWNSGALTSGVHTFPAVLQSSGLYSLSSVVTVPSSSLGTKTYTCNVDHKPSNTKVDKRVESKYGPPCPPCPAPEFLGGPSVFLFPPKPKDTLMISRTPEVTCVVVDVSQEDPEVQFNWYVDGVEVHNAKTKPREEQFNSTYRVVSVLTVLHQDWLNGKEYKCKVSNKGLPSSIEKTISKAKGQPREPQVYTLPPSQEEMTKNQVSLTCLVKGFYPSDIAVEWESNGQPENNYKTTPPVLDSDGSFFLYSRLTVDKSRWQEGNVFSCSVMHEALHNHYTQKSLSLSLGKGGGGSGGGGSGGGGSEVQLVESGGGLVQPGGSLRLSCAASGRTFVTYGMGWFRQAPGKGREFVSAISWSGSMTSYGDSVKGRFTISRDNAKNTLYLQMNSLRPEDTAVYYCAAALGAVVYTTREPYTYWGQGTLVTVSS
light: DIQMTQSPSSLSASVGDRVTITCQASQDIGNKLIWYQQKPGKAPKLLIYYVTNLPGGVPSRFSGSGSGTDFTLTISSLQPEDFATYYCLQYKQNPLTFGQGTKLEIKRTVAAPSVFIFPPSDEQLKSGTASVVCLLNNFYPREAKVQWKVDNALQSGNSQESVTEQDSKDSTYSLSSTLTLSKADYEKHKVYACEVTHQGLSSPVTKSFNRGEC
EC50, luminescence (RLU) in the PD-1/PD-L1 Blockade Assay [3]: 1.28 nM

B13: AS06686 sdAb (VHH)
VHH: AVQLVESGGGLVQAGDSLRLACAASGRTFLTYALGWFRQAPGKEREFVAGVSWSGSSTKYADSVKGRFTISRDNAKNTVYMQMNSLKPEDTAVYYCAAQISAIVPISAHEYQYWGQGTQVTVSS
notes: His6-tagged llama sdAb
Kd [1]: 0.346 nM | koff [1]: 0.000965 s⁻¹ | kon [1]: 2.79e+06 M⁻¹ s⁻¹ | EC50 of PD-L1-based blockade assay (luciferase reporter) [2]: 352 nM

B14: HSP210-02-hz52 (antibody, V domains shown)
VH: QVQLVQSGAEVKKPGASVKVSCKASGFNFEDTYMHWVRQAPGQGLEWMGRIDPADADTKYNPKFQDRVTITVDTSTNTAYMELSSLRSEDTAVYYCVRGNYVNWGQGTTVTVSS
VL: EIVLTQSPGTLSLSPGERATLSCRASSSVSSSYLYWYQQKPGQAPRLLIYSTSNLASGIPDRFSGSGSGTDYTLTISRLEPEDAAVYFCHQWYSYPRTFGGGTKVEIK
notes: humanized 248G3F6, VH v5 + VL v2; also called SIRPa IgG#1 02-hz52
Kd [4]: 7.4 nM | koff [4]: 0.00247 s⁻¹ | kon [4]: 333000 M⁻¹ s⁻¹

B15: AS06628 sdAb (VHH)
VHH: QVQLVESGGGLVQAGGSLRLSCAASGRTFITYAIGWFRQAPGKEREFVTAINWSGSMTSYADSVKGRFTISRDNNKNMVYLQMNSLKPEDTAVYYCAAHRGAIAPMTQSVYDYWGQGTQVTVSS
notes: His6-tagged llama sdAb
Kd [1]: 0.0526 nM | koff [1]: 0.000215 s⁻¹ | kon [1]: 4.1e+06 M⁻¹ s⁻¹ | EC50 of PD-L1-based blockade assay (luciferase reporter) [2]: 24.2 nM

B16: AS06791 sdAb (VHH)
VHH: QVQLVESGGGLVQAGGSLRLSCAASGRTFITYAIGWFRQAPGKEREFVTAINWSGSMTSYADSVKGRFTISRDNAKNTVYLQINGLKSEDTAVYYCAAHRGAIAPMTQSVYDYWGQGTQVTVSS
notes: His6-tagged llama sdAb
Kd [1]: 0.153 nM | koff [1]: 0.000239 s⁻¹ | kon [1]: 1.56e+06 M⁻¹ s⁻¹ | EC50 of PD-L1-based blockade assay (luciferase reporter) [2]: 36.5 nM

B17: AS06730 sdAb (VHH)
VHH: QVQLVESGGGLVQAGGSLRLSCAASGRTFITYAIGWFRQAPGKEREFVSAINWSGSMTSYADSVKGRFTISRDNAKNTVYLQMNGLKPEDTAVYYCAAHRGAIAPIAQSVYTNWGQGTQVTVSS
notes: His6-tagged llama sdAb
Kd [1]: 0.0195 nM | koff [1]: 0.000139 s⁻¹ | kon [1]: 7.11e+06 M⁻¹ s⁻¹ | EC50 of PD-L1-based blockade assay (luciferase reporter) [2]: 17.2 nM

B18: AS06703 sdAb (VHH)
VHH: EVQLVESGGGLVRAGGSLRLSCAASGRTFITYAIGWFRQAPGKEREFVTAINWSGSMTSYADSVKGRFTISRDNNKNTVYLQMNSLKPEDTALYYCAAHLGAIAPMSQSVYDYWGQGTQVTVSS
notes: His6-tagged llama sdAb
Kd [1]: 0.0387 nM | koff [1]: 6.96e-05 s⁻¹ | kon [1]: 1.8e+06 M⁻¹ s⁻¹ | EC50 of PD-L1-based blockade assay (luciferase reporter) [2]: 15 nM

B19: HSP210-03-hz51 (antibody, V domains shown)
VH: QVQLVQSGAEVKKPGSSVKVSCKASGYTFTSNYIHWVRQAPGQGLEWMGWIYPGDADTNYNQKFNGRVTLTADKSTSTAYMELSSLRSEDTAVYYCAINYGGIWFAYWGQGTLVTVSS
VL: DIQMTQSPSSLSASVGDRVTITCQASQDIGNKLIWYQQKPGKAPKLLIYYVTNLPGGVPSRFSGSGSGTDFTLTISSLQPEDFATYYCLQYKQNPLTFGQGTKLEIK
notes: humanized 300A6A6, VH v5 + VL v1; also called SIRPa IgG#2 03-hz51
Kd [4]: 3.03 nM | koff [4]: 0.001 s⁻¹ | kon [4]: 331000 M⁻¹ s⁻¹

B20: PD-L1/SIRPa-LC1 (bispecific antibody, human IgG4 S228P, kappa)
heavy: not shown
light: EIVLTQSPGTLSLSPGERATLSCRASSSVSSSYLYWYQQKPGQAPRLLIYSTSNLASGIPDRFSGSGSGTDYTLTISRLEPEDAAVYFCHQWYSYPRTFGGGTKVEIKRTVAAPSVFIFPPSDEQLKSGTASVVCLLNNFYPREAKVQWKVDNALQSGNSQESVTEQDSKDSTYSLSSTLTLSKADYEKHKVYACEVTHQGLSSPVTKSFNRGECGGGGSGGGGSGGGGSEVQLVESGGGLVQPGGSLRLSCAASGRTFVTYGMGWFRQAPGKGREFVSAISWSGSMTSYGDSVKGRFTISRDNAKNTLYLQMNSLRPEDTAVYYCAAALGAVVYTTREPYTYWGQGTLVTVSS
EC50, luminescence (RLU) in the PD-1/PD-L1 Blockade Assay [3]: 1.36 nM
